Measurements reported in paper PMC9482650, “Quantitative fragmentomics allow affinity mapping of interactomes” (Nature Communications, 2022).

Biological target: T1, ARHGEF11, O15085
T1 sequence (O15085 42-136, limits assumed, looked up): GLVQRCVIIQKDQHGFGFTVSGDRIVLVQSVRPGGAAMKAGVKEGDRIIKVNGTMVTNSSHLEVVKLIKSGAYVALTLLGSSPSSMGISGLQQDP
Assay: holdup assay
Parameters: key: below the threshold = too weak to quantify, mostly under pKd 3.1 to 4
Details: plain residues with an end cap or a label only (N-terminal biotin on a linker: ado-ado)

Binder	pKd
PDSNPEESSV [SEMA4C, Q9C0C4]	3.83
FTLPAESSEI [PLEKHG7, Q6ZR37]	below the threshold

Biological target: T2, CARD11, Q9BXL7
T2 sequence (Q9BXL7 662-765, limits assumed, looked up): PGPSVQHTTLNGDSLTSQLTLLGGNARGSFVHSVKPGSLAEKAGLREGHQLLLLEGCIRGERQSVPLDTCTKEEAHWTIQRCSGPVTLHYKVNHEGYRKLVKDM
Assay: holdup assay
Parameters: key: below the threshold = too weak to quantify, mostly under pKd 3.1 to 4
Details: plain residues with an end cap or a label only (N-terminal biotin on a linker: ado-ado)

Binder	pKd
PDSNPEESSV [SEMA4C, Q9C0C4]	below the threshold
FTLPAESSEI [PLEKHG7, Q6ZR37]	below the threshold

Biological target: DLG5_1, Q8TDM6
Assay: holdup assay
Parameters: key: below the threshold = too weak to quantify, mostly under pKd 3.1 to 4
Details: plain residues with an end cap or a label only (N-terminal biotin on a linker: ado-ado)

DLG5_1, Q8TDM6, sequence (Q8TDM6 617-713): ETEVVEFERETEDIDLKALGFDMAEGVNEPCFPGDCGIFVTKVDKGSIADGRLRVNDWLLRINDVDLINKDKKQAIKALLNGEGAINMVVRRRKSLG

Binder	pKd
PDSNPEESSV [SEMA4C, Q9C0C4]	below the threshold
FTLPAESSEI [PLEKHG7, Q6ZR37]	below the threshold

Biological target: T3, DVL3, Q92997
T3 sequence (Q92997 244-331, limits assumed, looked up): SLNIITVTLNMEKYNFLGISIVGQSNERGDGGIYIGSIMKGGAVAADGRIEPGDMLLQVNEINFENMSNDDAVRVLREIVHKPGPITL
Assay: holdup assay
Parameters: key: below the threshold = too weak to quantify, mostly under pKd 3.1 to 4
Details: plain residues with an end cap or a label only (N-terminal biotin on a linker: ado-ado)

Binder	pKd
PDSNPEESSV [SEMA4C, Q9C0C4]	below the threshold
FTLPAESSEI [PLEKHG7, Q6ZR37]	below the threshold

Biological target: GIPC2, Q8TF65
Assay: holdup assay
Parameters: key: below the threshold = too weak to quantify, mostly under pKd 3.1 to 4
Details: plain residues with an end cap or a label only (N-terminal biotin on a linker: ado-ado)

GIPC2, Q8TF65, sequence (Q8TF65 112-203): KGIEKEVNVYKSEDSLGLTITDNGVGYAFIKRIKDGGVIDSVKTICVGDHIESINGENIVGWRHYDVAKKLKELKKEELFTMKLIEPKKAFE

Binder	pKd
PDSNPEESSV [SEMA4C, Q9C0C4]	3.87
FTLPAESSEI [PLEKHG7, Q6ZR37]	below the threshold

Biological target: GRASP, Q7Z6J2
Assay: holdup assay
Parameters: key: below the threshold = too weak to quantify, mostly under pKd 3.1 to 4
Details: plain residues with an end cap or a label only (N-terminal biotin on a linker: ado-ado)

GRASP, Q7Z6J2, sequence (Q7Z6J2 96-193): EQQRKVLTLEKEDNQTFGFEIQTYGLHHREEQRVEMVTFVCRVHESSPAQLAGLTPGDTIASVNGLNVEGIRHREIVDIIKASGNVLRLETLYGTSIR

Binder	pKd
PDSNPEESSV [SEMA4C, Q9C0C4]	3.91
FTLPAESSEI [PLEKHG7, Q6ZR37]	3.98

Biological target: T4, GRIP1_3, Q9Y3R0
T4 sequence (Q9Y3R0 247-346, limits assumed, looked up): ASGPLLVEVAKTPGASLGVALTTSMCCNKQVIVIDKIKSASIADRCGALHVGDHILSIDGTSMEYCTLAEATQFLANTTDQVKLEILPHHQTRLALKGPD
Assay: holdup assay
Parameters: key: below the threshold = too weak to quantify, mostly under pKd 3.1 to 4
Details: plain residues with an end cap or a label only (N-terminal biotin on a linker: ado-ado)

Binder	pKd
PDSNPEESSV [SEMA4C, Q9C0C4]	below the threshold
FTLPAESSEI [PLEKHG7, Q6ZR37]	below the threshold

Biological target: T5, GRIP1_7, Q9Y3R0
T5 sequence (Q9Y3R0 999-1096, limits assumed, looked up): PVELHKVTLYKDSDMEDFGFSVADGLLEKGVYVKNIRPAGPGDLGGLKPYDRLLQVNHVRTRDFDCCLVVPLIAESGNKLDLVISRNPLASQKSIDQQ
Assay: holdup assay
Parameters: key: below the threshold = too weak to quantify, mostly under pKd 3.1 to 4
Details: plain residues with an end cap or a label only (N-terminal biotin on a linker: ado-ado)

Binder	pKd
PDSNPEESSV [SEMA4C, Q9C0C4]	below the threshold
FTLPAESSEI [PLEKHG7, Q6ZR37]	below the threshold

Biological target: GRIP2_5, Q9C0E4
Assay: holdup assay
Parameters: key: below the threshold = too weak to quantify, mostly under pKd 3.1 to 4
Details: plain residues with an end cap or a label only (N-terminal biotin on a linker: ado-ado)

GRIP2_5, Q9C0E4, sequence (Q9C0E4 544-642): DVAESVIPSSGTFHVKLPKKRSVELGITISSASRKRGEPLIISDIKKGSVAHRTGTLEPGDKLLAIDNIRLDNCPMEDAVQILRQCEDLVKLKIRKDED

Binder	pKd
PDSNPEESSV [SEMA4C, Q9C0C4]	below the threshold
FTLPAESSEI [PLEKHG7, Q6ZR37]	below the threshold

Biological target: T6, HTRA3, P83110
T6 sequence (P83110 354-453, limits assumed, looked up): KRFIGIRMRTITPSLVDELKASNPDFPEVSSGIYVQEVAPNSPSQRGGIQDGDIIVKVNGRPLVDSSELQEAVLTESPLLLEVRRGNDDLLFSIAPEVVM
Assay: holdup assay
Parameters: key: below the threshold = too weak to quantify, mostly under pKd 3.1 to 4
Details: plain residues with an end cap or a label only (N-terminal biotin on a linker: ado-ado)

Binder	pKd
PDSNPEESSV [SEMA4C, Q9C0C4]	below the threshold
FTLPAESSEI [PLEKHG7, Q6ZR37]	below the threshold

Biological target: IL16_1, Q14005
Assay: holdup assay
Parameters: key: below the threshold = too weak to quantify, mostly under pKd 3.1 to 4
Details: plain residues with an end cap or a label only (N-terminal biotin on a linker: ado-ado)

IL16_1, Q14005, sequence (Q14005 210-306): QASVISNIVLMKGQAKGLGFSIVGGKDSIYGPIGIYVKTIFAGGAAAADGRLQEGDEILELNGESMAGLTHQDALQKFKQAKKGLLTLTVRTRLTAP

Binder	pKd
PDSNPEESSV [SEMA4C, Q9C0C4]	4.49
FTLPAESSEI [PLEKHG7, Q6ZR37]	below the threshold

Biological target: Inadl_10, Q8NI35
Assay: holdup assay
Parameters: key: below the threshold = too weak to quantify, mostly under pKd 3.1 to 4
Details: plain residues with an end cap or a label only (N-terminal biotin on a linker: ado-ado)

Inadl_10, Q8NI35, sequence (Q8NI35 1673-1763): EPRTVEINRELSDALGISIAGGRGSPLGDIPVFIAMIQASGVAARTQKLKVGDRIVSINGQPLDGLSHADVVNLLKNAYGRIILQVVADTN

Binder	pKd
PDSNPEESSV [SEMA4C, Q9C0C4]	below the threshold
FTLPAESSEI [PLEKHG7, Q6ZR37]	below the threshold

Biological target: LDB3, O75112
Assay: holdup assay
Parameters: key: below the threshold = too weak to quantify, mostly under pKd 3.1 to 4
Details: plain residues with an end cap or a label only (N-terminal biotin on a linker: ado-ado)

LDB3, O75112, sequence (O75112 1-94): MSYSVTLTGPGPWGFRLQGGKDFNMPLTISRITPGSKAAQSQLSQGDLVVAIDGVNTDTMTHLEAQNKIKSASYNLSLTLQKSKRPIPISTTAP

Binder	pKd
PDSNPEESSV [SEMA4C, Q9C0C4]	below the threshold
FTLPAESSEI [PLEKHG7, Q6ZR37]	below the threshold

Biological target: LNX1_1, Q8TBB1
Assay: holdup assay
Parameters: key: below the threshold = too weak to quantify, mostly under pKd 3.1 to 4
Details: plain residues with an end cap or a label only (N-terminal biotin on a linker: ado-ado)

LNX1_1, Q8TBB1, sequence (Q8TBB1 261-371): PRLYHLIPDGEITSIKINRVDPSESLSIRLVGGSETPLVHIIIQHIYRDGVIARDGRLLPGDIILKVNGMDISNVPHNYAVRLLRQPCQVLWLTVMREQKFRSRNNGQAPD

Binder	pKd
PDSNPEESSV [SEMA4C, Q9C0C4]	below the threshold
FTLPAESSEI [PLEKHG7, Q6ZR37]	below the threshold

Biological target: LNX1_3, Q8TBB1
Assay: holdup assay
Parameters: key: below the threshold = too weak to quantify, mostly under pKd 3.1 to 4
Details: plain residues with an end cap or a label only (N-terminal biotin on a linker: ado-ado)

LNX1_3, Q8TBB1, sequence (Q8TBB1 500-596): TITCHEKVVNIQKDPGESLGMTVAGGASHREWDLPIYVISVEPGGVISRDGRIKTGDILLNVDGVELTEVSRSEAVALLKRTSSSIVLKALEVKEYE

Binder	pKd
PDSNPEESSV [SEMA4C, Q9C0C4]	below the threshold
FTLPAESSEI [PLEKHG7, Q6ZR37]	below the threshold

Biological target: T7, LNX2_3, Q8N448
T7 sequence (Q8N448 463-564, limits assumed, looked up): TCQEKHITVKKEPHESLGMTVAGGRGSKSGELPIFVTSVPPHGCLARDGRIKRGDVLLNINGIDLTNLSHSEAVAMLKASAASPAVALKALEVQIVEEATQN
Assay: holdup assay
Parameters: key: below the threshold = too weak to quantify, mostly under pKd 3.1 to 4
Details: plain residues with an end cap or a label only (N-terminal biotin on a linker: ado-ado)

Binder	pKd
PDSNPEESSV [SEMA4C, Q9C0C4]	3.62
FTLPAESSEI [PLEKHG7, Q6ZR37]	below the threshold

Biological target: T8, LRRC7, Q96NW7
T8 sequence (Q96NW7 1440-1537, limits assumed, looked up): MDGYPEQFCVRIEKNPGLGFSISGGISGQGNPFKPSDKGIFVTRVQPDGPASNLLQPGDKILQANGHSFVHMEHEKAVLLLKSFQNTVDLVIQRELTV
Assay: holdup assay
Parameters: key: below the threshold = too weak to quantify, mostly under pKd 3.1 to 4
Details: plain residues with an end cap or a label only (N-terminal biotin on a linker: ado-ado)

Binder	pKd
PDSNPEESSV [SEMA4C, Q9C0C4]	below the threshold
FTLPAESSEI [PLEKHG7, Q6ZR37]	below the threshold

Biological target: MAGI1_2, Q96QZ7
Assay: holdup assay
Parameters: key: below the threshold = too weak to quantify, mostly under pKd 3.1 to 4
Details: plain residues with an end cap or a label only (N-terminal biotin on a linker: ado-ado)

MAGI1_2, Q96QZ7, sequence (Q96QZ7 456-580): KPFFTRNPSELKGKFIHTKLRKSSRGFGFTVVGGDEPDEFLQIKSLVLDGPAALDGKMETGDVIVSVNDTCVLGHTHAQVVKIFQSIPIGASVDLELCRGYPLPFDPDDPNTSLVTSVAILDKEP

Binder	pKd
PDSNPEESSV [SEMA4C, Q9C0C4]	below the threshold
FTLPAESSEI [PLEKHG7, Q6ZR37]	below the threshold

Biological target: MAGI2_3, Q86UL8
Assay: holdup assay
Parameters: key: below the threshold = too weak to quantify, mostly under pKd 3.1 to 4
Details: plain residues with an end cap or a label only (N-terminal biotin on a linker: ado-ado)

MAGI2_3, Q86UL8, sequence (Q86UL8 600-682): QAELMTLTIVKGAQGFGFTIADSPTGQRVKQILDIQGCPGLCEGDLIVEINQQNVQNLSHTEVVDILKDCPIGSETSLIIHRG

Binder	pKd
PDSNPEESSV [SEMA4C, Q9C0C4]	below the threshold
FTLPAESSEI [PLEKHG7, Q6ZR37]	below the threshold

Biological target: T9, MPDZ_12, O75970
T9 sequence (O75970 1857-1958, limits assumed, looked up): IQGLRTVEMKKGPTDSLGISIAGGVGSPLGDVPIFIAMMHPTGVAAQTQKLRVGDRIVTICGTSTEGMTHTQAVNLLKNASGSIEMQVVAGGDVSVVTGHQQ
Assay: holdup assay
Parameters: key: below the threshold = too weak to quantify, mostly under pKd 3.1 to 4
Details: plain residues with an end cap or a label only (N-terminal biotin on a linker: ado-ado)

Binder	pKd
PDSNPEESSV [SEMA4C, Q9C0C4]	below the threshold
FTLPAESSEI [PLEKHG7, Q6ZR37]	below the threshold

Biological target: NHERF4_1, Q86UT5-2
Assay: holdup assay
Parameters: key: below the threshold = too weak to quantify, mostly under pKd 3.1 to 4
Details: plain residues with an end cap or a label only (N-terminal biotin on a linker: ado-ado)

NHERF4_1, Q86UT5-2, sequence (Q86UT5 other isoform, or with tags, fused parts or gaps): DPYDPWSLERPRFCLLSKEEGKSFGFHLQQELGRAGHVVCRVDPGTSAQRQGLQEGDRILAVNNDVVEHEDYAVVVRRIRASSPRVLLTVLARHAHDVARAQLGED

Binder	pKd
PDSNPEESSV [SEMA4C, Q9C0C4]	3.7
FTLPAESSEI [PLEKHG7, Q6ZR37]	below the threshold

Biological target: NHERF4_2, Q86UT5
Assay: holdup assay
Parameters: key: below the threshold = too weak to quantify, mostly under pKd 3.1 to 4
Details: plain residues with an end cap or a label only (N-terminal biotin on a linker: ado-ado)

NHERF4_2, Q86UT5, sequence (Q86UT5 220-308): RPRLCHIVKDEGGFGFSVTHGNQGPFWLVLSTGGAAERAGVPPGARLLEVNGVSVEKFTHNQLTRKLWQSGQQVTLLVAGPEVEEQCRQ

Binder	pKd
PDSNPEESSV [SEMA4C, Q9C0C4]	below the threshold
FTLPAESSEI [PLEKHG7, Q6ZR37]	below the threshold

Biological target: NHERF4_4, Q86UT5
Assay: holdup assay
Parameters: key: below the threshold = too weak to quantify, mostly under pKd 3.1 to 4
Details: plain residues with an end cap or a label only (N-terminal biotin on a linker: ado-ado)

NHERF4_4, Q86UT5, sequence (Q86UT5 464-550): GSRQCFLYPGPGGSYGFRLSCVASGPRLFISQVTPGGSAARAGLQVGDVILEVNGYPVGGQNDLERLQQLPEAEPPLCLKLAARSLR

Binder	pKd
PDSNPEESSV [SEMA4C, Q9C0C4]	below the threshold
FTLPAESSEI [PLEKHG7, Q6ZR37]	below the threshold

Biological target: PDZRN4_1, Q6ZMN7
Assay: holdup assay
Parameters: key: below the threshold = too weak to quantify, mostly under pKd 3.1 to 4
Details: plain residues with an end cap or a label only (N-terminal biotin on a linker: ado-ado)

PDZRN4_1, Q6ZMN7, sequence (Q6ZMN7 213-318): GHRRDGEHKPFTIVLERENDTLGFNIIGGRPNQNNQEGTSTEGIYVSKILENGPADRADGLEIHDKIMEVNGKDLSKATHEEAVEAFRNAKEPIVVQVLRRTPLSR

Binder	pKd
PDSNPEESSV [SEMA4C, Q9C0C4]	4.43
FTLPAESSEI [PLEKHG7, Q6ZR37]	below the threshold

Biological target: T10, RHPN1, Q8TCX5
T10 sequence (Q8TCX5 508-602, limits assumed, looked up): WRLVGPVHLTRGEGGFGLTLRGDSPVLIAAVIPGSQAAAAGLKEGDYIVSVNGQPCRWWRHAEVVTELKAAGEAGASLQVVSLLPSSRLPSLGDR
Assay: holdup assay
Parameters: key: below the threshold = too weak to quantify, mostly under pKd 3.1 to 4
Details: plain residues with an end cap or a label only (N-terminal biotin on a linker: ado-ado)

Binder	pKd
PDSNPEESSV [SEMA4C, Q9C0C4]	4.7
FTLPAESSEI [PLEKHG7, Q6ZR37]	4.68

Biological target: SCRIB_1, Q14160
Assay: holdup assay
Parameters: key: below the threshold = too weak to quantify, mostly under pKd 3.1 to 4
Details: plain residues with an end cap or a label only (N-terminal biotin on a linker: ado-ado)

SCRIB_1, Q14160, sequence (Q14160 718-814): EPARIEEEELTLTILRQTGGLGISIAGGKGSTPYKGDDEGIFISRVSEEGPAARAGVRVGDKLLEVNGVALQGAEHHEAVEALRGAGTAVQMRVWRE

Binder	pKd
PDSNPEESSV [SEMA4C, Q9C0C4]	4.15
FTLPAESSEI [PLEKHG7, Q6ZR37]	below the threshold

Biological target: TJP1_2, Q07157
Assay: holdup assay
Parameters: key: below the threshold = too weak to quantify, mostly under pKd 3.1 to 4
Details: plain residues with an end cap or a label only (N-terminal biotin on a linker: ado-ado)

TJP1_2, Q07157, sequence (Q07157 181-274): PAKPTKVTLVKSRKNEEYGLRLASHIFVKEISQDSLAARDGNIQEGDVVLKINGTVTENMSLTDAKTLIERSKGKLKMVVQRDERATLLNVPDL

Binder	pKd
PDSNPEESSV [SEMA4C, Q9C0C4]	below the threshold
FTLPAESSEI [PLEKHG7, Q6ZR37]	below the threshold

Biological target: TJP1_3, Q07157
Assay: holdup assay
Parameters: key: below the threshold = too weak to quantify, mostly under pKd 3.1 to 4
Details: plain residues with an end cap or a label only (N-terminal biotin on a linker: ado-ado)

TJP1_3, Q07157, sequence (Q07157 416-512): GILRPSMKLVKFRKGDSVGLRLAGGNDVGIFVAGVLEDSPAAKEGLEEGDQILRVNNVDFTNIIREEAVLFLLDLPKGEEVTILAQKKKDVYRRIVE

Binder	pKd
PDSNPEESSV [SEMA4C, Q9C0C4]	below the threshold
FTLPAESSEI [PLEKHG7, Q6ZR37]	below the threshold
